Measured values as given in the RNAGym collection of RNA variant scans (doi:10.7554/elife.90254).

B1: OR4K15 (parent)
chain: GUUAACGGUCAUAGGCCAUGGAAACUAGGAGCACCAUUUCGCUGCCAGUGAAGAAAUGAACAAAGAAAAUCUGGGCCAGGCAGGCAUCAAAAGAAAUAGUCUUGCGCUCAACCAGAAAGUCUGUAAUCAUUUUAAGGGUA

Variants of: B1
Assay: self-cleavage, relative activity (ratio to wild type); higher = more cleavage; in vitro, sequencing; the parent is a self-cleaving ribozyme

Variant | self-cleavage
A22U U43A | 2.1
A22U U43C | 1.81
A22G G136A | 0.6
A23G A111U | 0.23
A23G A111G | 0.05
A23G A111C | 0
A22U A27U | 2.02
A23G A129G | 0.35
A23G A129C | 0.82
A23U A60G | 1.24
G21A A51G | 1.66
A22U A89G | 1.31
A23G A30U | 0.82
A23G A30G | 1.1
A22G A27G | 1.04
A23G G41C | 1.01
A23G C46U | 1.59
A23G A90G | 0.8
G21A A114U | 0.05
A23G A62U | 1.09
A23G A62G | 0.87
A22U A56G | 1.16
A22U A95G | 0.94
A22U A30G | 1.13

Variant | self-cleavage
A22U A63U | 2.2
A22U A63G | 1.45
A23G U43C | 1.38
A23G G48U | 0.73
A23G G48A | 1.29
A22G A59C | 1.17
A22G A59U | 1.11
A22G U97G | 1.42
A22U A135G | 0.4
A23U U43C | 1.22
G21U U87C | 1.55
A23G A55G | 1.27
A23U A51C | 1.55
A22G A89C | 1.28
A22G U100A | 0.54
A22G U100C | 1.69
G21A A69U | 1.48
A23U U72A | 0.41
A22G G31U | 0.75
A22G G31A | 1.19
A22U A116G | 0.96
A22U A62U | 1.58
A23G A60G | 0.97
A23G C61A | 1.45

Variant | self-cleavage
A23G C61G | 1.12
A23G C61U | 1.24
A22G U57C | 0.91
A23G A117G | 1.2
A22U C25U | 0.77
G21A A60G | 1.14
A23G G80U | 0.23
A22G A23G | 1.09
A22G U139C | 1.24
A22G U139A | 1.14
A23G A27U | 1.29
G21A A94G | 1.81
A23G U139C | 1.26
A22G A110C | 0.3
A22G A110U | 0.8
A22G A110G | 0.08
A22G U108A | 0.01
A23G U72C | 0.3
A22G U124G | 0.96
A22G A116U | 0.35
A23U U26C | 1.23
A23C U130C | 0.85
A22G A24U | 1.27
A22G A24G | 1

Variant | self-cleavage
A22U A129C | 1.58
A22U G123U | 1.96
A23G A51U | 1.22
A22G C34U | 1.33
A22G A140G | 1.85
A22G A140U | 0.8
A22U U120C | 0.48
A22U U120A | 1.95
A22C U70C | 1.25
G21A A78U | 0.86
A23G U131C | 0.45
A22U A68G | 0.93
A23G G75A | 0.19
A22U U57C | 0.84
A23G A69G | 0.91
A23G A59G | 1.11
A22G C76U | 0.19
G21U A82G | 0.98
A22G C81U | 0.53
A23G U87A | 0.94
A23G U87C | 0.61
A22G A114U | 0.08
A23G A64G | 0.58
A23G A64U | 1.2

Variant | self-cleavage
A23G C32U | 0.82
A22U A117G | 1.06
A22U A69C | 0.47
A22U A69U | 2.67
A23U A117G | 1.14
A23U G29A | 2.77
A22C U38C | 2.55
A22U U132A | 1.7
A23U U103C | 0.03
A23G G84U | 0.21
G21A A67G | 1.78
A22U C121A | 2.6
A22U U108C | 0.03
A23G A125G | 0.4
A22G U120A | 1.22
A22U A66G | 1.5
A22U G53A | 1.47
G21U U122A | 1.42
A23U A30G | 1.09
A23U A30U | 0.26
A22U A60G | 1.29
A23U A54U | 1.61
A23U A54G | 1.59
A24C A27G | 1.25

Variant | self-cleavage
A23U U124C | 1.64
A22C | 1.11
A22G | 1.09
A22U | 1.3
A22G A129U | 0.78
A22G A129G | 0.61
A22G A96G | 1.28
A22G A96C | 1.58
A24C A33G | 1.14
A22C U131G | 0.94
A22C U127C | 1.48
A23G U102C | 1.87
A23G G65A | 0.71
A22G U38C | 1.62
A23U A129U | 0.79
A22G A60G | 0.94
G21U U102C | 2.03
A23U A47G | 0.67
A23U A47U | 1.04
G21A A90G | 0.38
A22U A126C | 1.34
A23U A78G | 0.31
A22G A56G | 1.01
G21U A22G | 1.71

Variant | self-cleavage
A23G C113U | 0.05
A23G U103A | 0.75
A23U A66G | 1.16
A23U C76A | 0.23
A22G C32U | 0.91
G21C U108C | 0.02
G21A U127C | 1.32
A23G A91G | 0.7
A23G A91C | 1.49
A22U U72A | 0.21
A22U U72C | 0.04
A22G A94C | 1.21
A22G A94G | 0.92
G21A A64U | 1.5
A23G A67G | 1.11
A22C A96G | 2.53
A22G A68G | 1.31
A22U U49A | 1.78
A22G G48A | 1.56
G21A U70C | 1.39
A22U A111G | 0.02
A23G A134G | 0.76
A23G A134U | 0.77
